Laboratory results as given in US20140271457A1 (AbbVie / Abbott, published 2014).
Changes are numbered by the printed parent chain.

B1: DVD2694 (bispecific antibody, IgG1)
VH: EVQLVESGGGLVQPGGSLRLSCAASGFTFSNYGVTWVRQAPGKGLEWVSMIWADGSTHYASSVKGRFTISRDNSKNTLYLQMNSLRAEDTAVYYCAREWQHGPVAYWGQGTLVTVSSASTKGPEVQLVQSGAEVKKPGASVKVSCKASGYTFTKYWLGWVRQAPGQGLEWMGDIYPGYDYTHYNEKFKDRVTLTTDTSTSTAYMELRSLRSDDTAVYYCARSDGSSTYWGQGTLVTVSS
VL: DIQMTQSPSSLSASVGDRVTITCRASQLVSSAVAWYQQKPGKAPKLLIYWASARHTGVPSRFSGSGSGTDFTLTISSLQPEDFATYYCQQHYKTPFTFGQGTKLEIKRTVAAPDVLMTQTPLSLPVTPGEPASISCTSSQNIVHSNGNTYLEWYLQKPGQSPQLLIYKVSNRFSGVPDRFSGSGSGTDFTLKISRVEAEDVGVYYCFQVSHVPYTFGGGTKVEIKR
B2: DVD2744 (bispecific antibody, IgG1)
VH: B1 VH with T35E, M50G, S61D, S62T, G65S
VL: B1 VL with R24K, A53T, R54L, K93R
B3: DVD2746 (bispecific antibody, IgG1)
VH: B1 VH with T35E, M50G, S61D, S62T, G65S
VL: DIQMTQSPSSLSASVGDRVTITCKASQLVSSAVAWYQQKPGKAPKLLIYWASTLHTGVPSRFSGSGSGTDFTLTISSLQPEDFATYYCQQHYRTPFTFGQGTKLEIKRTVAAPSVFIFPPDVLMTQTPLSLPVTPGEPASISCTSSQNIVHSNGNTYLEWYLQKPGQSPQLLIYKVSNRFSGVPDRFSGSGSGTDFTLKISRVEAEDVGVYYCFQVSHVPYTFGGGTKVEIKR
B4: DVD2698 (bispecific antibody, IgG1)
VH: EVQLVQSGAEVKKPGASVKVSCKASGYTFTKYWLGWVRQAPGQGLEWMGDIYPGYDYTHYNEKFKDRVTLTTDTSTSTAYMELRSLRSDDTAVYYCARSDGSSTYWGQGTLVTVSSGGGGSGGGGSEVQLVESGGGLVQPGGSLRLSCAASGFTFSNYGVTWVRQAPGKGLEWVSMIWADGSTHYASSVKGRFTISRDNSKNTLYLQMNSLRAEDTAVYYCAREWQHGPVAYWGQGTLVTVSS
VL: DVLMTQTPLSLPVTPGEPASISCTSSQNIVHSNGNTYLEWYLQKPGQSPQLLIYKVSNRFSGVPDRFSGSGSGTDFTLKISRVEAEDVGVYYCFQVSHVPYTFGGGTKVEIKRGGSGGGGSGDIQMTQSPSSLSASVGDRVTITCRASQLVSSAVAWYQQKPGKAPKLLIYWASARHTGVPSRFSGSGSGTDFTLTISSLQPEDFATYYCQQHYKTPFTFGQGTKLEIKR
B5: DVD3167 (bispecific antibody, IgG1)
VH: EVQLVQSGAEVKKPGASVKVSCKASGYTFANYGIIWVRQAPGQGLEWMGWINTYTGKPTYAQKFQGRVTMTTDTSTSTAYMELSSLRSEDTAVYYCARKLFTTMDVTDNAMDYWGQGTTVTVSSASTKGPSVFPLAPEVQLVQSGAEVKKPGASVKVSCKASGYTFTSYWMHWVRQAPGQGLEWIGNINPKGGSNIYNEKFQGRVTMTRDTSISTAYMELSRLRSDDTAVYYCARLDYFGDSFDLWGQGTTVTVSS
VL: DIQMTQSPSSLSASVGDRVTITCRASQDISQYLNWYQQKPGKAPKLLIYYTSRLQSGVPSRFSGSGSGTDFTLTISSLQPEDFATYFCQQGNTWPPTFGQGTKLEIKRTVAAPDIQMTQSPSSLSASVGDRVTITCRASQGIRNYLNWYQQKPGKAPKLLIYYASNLEVGVPSRFSGSGSGTDYTLTISSLQPEDFATYYCQQDNRFPYTFGGGTKVEIKR
B6: DVD3177 (bispecific antibody, IgG1)
VH: B5 VH with A30N, T102N, M104V, D105A
VL: B5 VL with S30E, Q31N, W94Q
B7: DVD2699 (bispecific antibody, IgG1)
VH: EVQLVQSGAEVKKPGASVKVSCKASGYTFTKYWLGWVRQAPGQGLEWMGDIYPGYDYTHYNEKFKDRVTLTTDTSTSTAYMELRSLRSDDTAVYYCARSDGSSTYWGQGTLVTVSSASTKGPEVQLVESGGGLVQPGGSLRLSCAASGFTFSNYGVTWVRQAPGKGLEWVSMIWADGSTHYASSVKGRFTISRDNSKNTLYLQMNSLRAEDTAVYYCAREWQHGPVAYWGQGTLVTVSS
VL: DVLMTQTPLSLPVTPGEPASISCTSSQNIVHSNGNTYLEWYLQKPGQSPQLLIYKVSNRFSGVPDRFSGSGSGTDFTLKISRVEAEDVGVYYCFQVSHVPYTFGGGTKVEIKRTVAAPDIQMTQSPSSLSASVGDRVTITCRASQLVSSAVAWYQQKPGKAPKLLIYWASARHTGVPSRFSGSGSGTDFTLTISSLQPEDFATYYCQQHYKTPFTFGQGTKLEIKR
B8: DVD2702 (bispecific antibody, IgG1)
VH: EVQLVQSGAEVKKPGASVKVSCKASGYTFTKYWLGWVRQAPGQGLEWMGDIYPGYDYTHYNEKFKDRVTLTTDTSTSTAYMELRSLRSDDTAVYYCARSDGSSTYWGQGTLVTVSSASTKGPSVFPLAPEVQLVESGGGLVQPGGSLRLSCAASGFTFSNYGVTWVRQAPGKGLEWVSMIWADGSTHYASSVKGRFTISRDNSKNTLYLQMNSLRAEDTAVYYCAREWQHGPVAYWGQGTLVTVSS
VL: B7 VL
B9: DVD2701 (bispecific antibody, IgG1)
VH: B7 VH
VL: DVLMTQTPLSLPVTPGEPASISCTSSQNIVHSNGNTYLEWYLQKPGQSPQLLIYKVSNRFSGVPDRFSGSGSGTDFTLKISRVEAEDVGVYYCFQVSHVPYTFGGGTKVEIKRTVAAPSVFIFPPDIQMTQSPSSLSASVGDRVTITCRASQLVSSAVAWYQQKPGKAPKLLIYWASARHTGVPSRFSGSGSGTDFTLTISSLQPEDFATYYCQQHYKTPFTFGQGTKLEIKR
B10: DVD3119 (bispecific antibody, IgG1)
VH: EVQLVQSGAEVKKPGASVKVSCKASGYTFTTYGVSWVRQAPGQGLEWMGEIYPGNYNTYYNEKFRGRVTMTTDTSTSTAYMELRSLRSDDTAVYYCARWRTSYFSDYGYFDYWGQGTTVTVSSASTKGPEVQLVQSGAEVKKPGASVKVSCKASGYTFNNYGIIWVRQAPGQGLEWMGWINTYTGKPTYAQKFQGRVTMTTDTSTSTAYMELSSLRSEDTAVYYCARKLFNTVAVTDNAMDYWGQGTTVTVSS
VL: DVVMTQSPLSLPVTLGQPASISCRSSQSLVHSHGNTYLHWYQQRPGQSPRLLIYTVSNRFSGVPDRFSGSGSGTDFTLKISRVEAEDVGVYYCSQSTHVPYTFGGGTKVEIKRTVAAPDIQMTQSPSSLSASVGDRVTITCRASQDIENYLNWYQQKPGKAPKLLIYYTSRLQSGVPSRFSGSGSGTDFTLTISSLQPEDFATYFCQQGNTQPPTFGQGTKLEIKR
B11: DVD3122 (bispecific antibody, IgG1)
VH: EVQLVQSGAEVKKPGASVKVSCKASGYTFTTYGVSWVRQAPGQGLEWMGEIYPGNYNTYYNEKFRGRVTMTTDTSTSTAYMELRSLRSDDTAVYYCARWRTSYFSDYGYFDYWGQGTTVTVSSASTKGPSVFPLAPEVQLVQSGAEVKKPGASVKVSCKASGYTFNNYGIIWVRQAPGQGLEWMGWINTYTGKPTYAQKFQGRVTMTTDTSTSTAYMELSSLRSEDTAVYYCARKLFNTVAVTDNAMDYWGQGTTVTVSS
VL: B10 VL
B12: DVD3121 (bispecific antibody, IgG1)
VH: B10 VH
VL: DVVMTQSPLSLPVTLGQPASISCRSSQSLVHSHGNTYLHWYQQRPGQSPRLLIYTVSNRFSGVPDRFSGSGSGTDFTLKISRVEAEDVGVYYCSQSTHVPYTFGGGTKVEIKRTVAAPSVFIFPPDIQMTQSPSSLSASVGDRVTITCRASQDIENYLNWYQQKPGKAPKLLIYYTSRLQSGVPSRFSGSGSGTDFTLTISSLQPEDFATYFCQQGNTQPPTFGQGTKLEIKR
B13: DVD2693 (bispecific antibody, IgG1)
VH: EVQLVESGGGLVQPGGSLRLSCAASGFTFSNYGVTWVRQAPGKGLEWVSMIWADGSTHYASSVKGRFTISRDNSKNTLYLQMNSLRAEDTAVYYCAREWQHGPVAYWGQGTLVTVSSGGGGSGGGGSEVQLVQSGAEVKKPGASVKVSCKASGYTFTKYWLGWVRQAPGQGLEWMGDIYPGYDYTHYNEKFKDRVTLTTDTSTSTAYMELRSLRSDDTAVYYCARSDGSSTYWGQGTLVTVSS
VL: DIQMTQSPSSLSASVGDRVTITCRASQLVSSAVAWYQQKPGKAPKLLIYWASARHTGVPSRFSGSGSGTDFTLTISSLQPEDFATYYCQQHYKTPFTFGQGTKLEIKRGGSGGGGSGDVLMTQTPLSLPVTPGEPASISCTSSQNIVHSNGNTYLEWYLQKPGQSPQLLIYKVSNRFSGVPDRFSGSGSGTDFTLKISRVEAEDVGVYYCFQVSHVPYTFGGGTKVEIKR
B14: DVD2743 (bispecific antibody, IgG1)
VH: B13 VH with T35E, M50G, S61D, S62T, G65S
VL: B13 VL with R24K, A53T, R54L, K93R

The binders below were run against Recombinant Human TNF-α/TNFSF1A (human, UniProt P01375 77-233) (assay: cell-based or functional assay).
Sequence of Recombinant Human TNF-α/TNFSF1A (P01375 77-233 limits assumed): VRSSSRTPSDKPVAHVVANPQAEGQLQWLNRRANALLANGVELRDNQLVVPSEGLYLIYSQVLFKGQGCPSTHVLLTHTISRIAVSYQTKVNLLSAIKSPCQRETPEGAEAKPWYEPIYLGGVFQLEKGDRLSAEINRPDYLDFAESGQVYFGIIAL

N-Terminal VD huTNFα Neutralization Assay IC50 [nM] | C-Terminal VD huTNFα Neutralization Assay IC50 [nM] | Binder
0.001 | – | B1
0.003 | – | B2
0.006 | – | B3
– | 0.085 | B4
0.018 | – | B5
0.022 | – | B6
– | 0.064 | B7
– | 0.106 | B8
– | 0.036 | B9
– | 0.163 | B10
– | 0.018 | B11
– | 0.036 | B12
0.001 | – | B13
0.006 | – | B14
